Here are results for three molecules from paper PMC8421416, “Structure of the native pyruvate dehydrogenase complex reveals the mechanism of substrate insertion” (Nature Communications, 2021).

The chains are these.
B2: dihydrolipoyl transacetylase (E2p) of the E. coli pyruvate dehydrogenase complex (enzyme, E. coli K12, UniProt P06959 1-630, looked up)
chain: MAIEIKVPDIGADEVEITEILVKVGDKVEAEQSLITVEGDKASMEVPSPQAGIVKEIKVSVGDKTQTGALIMIFDSADGAADAAPAQAEEKKEAAPAAAPAAAAAKDVNVPDIGSDEVEVTEILVKVGDKVEAEQSLITVEGDKASMEVPAPFAGTVKEIKVNVGDKVSTGSLIMVFEVAGEAGAAAPAAKQEAAPAAAPAPAAGVKEVNVPDIGGDEVEVTEVMVKVGDKVAAEQSLITVEGDKASMEVPAPFAGVVKELKVNVGDKVKTGSLIMIFEVEGAAPAAAPAKQEAAAPAPAAKAEAPAAAPAAKAEGKSEFAENDAYVHATPLIRRLAREFGVNLAKVKGTGRKGRILREDVQAYVKEAIKRAEAAPAATGGGIPGMLPWPKVDFSKFGEIEEVELGRIQKISGANLSRNWVMIPHVTHFDKTDITELEAFRKQQNEEAAKRKLDVKITPVVFIMKAVAAALEQMPRFNSSLSEDGQRLTLKKYINIGVAVDTPNGLVVPVFKDVNKKGIIELSRELMTISKKARDGKLTAGEMQGGCFTISSIGGLGTTHFAPIVNAPEVAILGVSKSAMEPVWNGKEFVPRLMLPISLSFDHRVIDGADGARFITIINNTLSDIRRLVM
modifications: lipoylated residues K41, K144 and K245 (mass spectrometry); dihydrolipoyllysine modelled at K245 in the structure
notes: dihydrolipoyl transacetylase (E2p), aceF gene, E. coli strain K12; native full-length protein, modelled catalytic domain starts at P384; It was modelled as the innermost one (K245), from PDB 1qjo; also called dihydrolipoyl acyltransferase; E2p core; source: endogenous, E. coli K12; copies: 24

Data set [1] concerns the target T1, dihydrolipoyl transacetylase (E2p) core of E. coli PDHc (Escherichia coli, UniProt P06959).
T1 construct: gene aceF; native full-length E2p in native PDHc; catalytic domain modelled from P384 plus one lipoyl domain (averaged, modelled as innermost, K245); octahedral 24-mer
T1 sequence (P06959 2-630): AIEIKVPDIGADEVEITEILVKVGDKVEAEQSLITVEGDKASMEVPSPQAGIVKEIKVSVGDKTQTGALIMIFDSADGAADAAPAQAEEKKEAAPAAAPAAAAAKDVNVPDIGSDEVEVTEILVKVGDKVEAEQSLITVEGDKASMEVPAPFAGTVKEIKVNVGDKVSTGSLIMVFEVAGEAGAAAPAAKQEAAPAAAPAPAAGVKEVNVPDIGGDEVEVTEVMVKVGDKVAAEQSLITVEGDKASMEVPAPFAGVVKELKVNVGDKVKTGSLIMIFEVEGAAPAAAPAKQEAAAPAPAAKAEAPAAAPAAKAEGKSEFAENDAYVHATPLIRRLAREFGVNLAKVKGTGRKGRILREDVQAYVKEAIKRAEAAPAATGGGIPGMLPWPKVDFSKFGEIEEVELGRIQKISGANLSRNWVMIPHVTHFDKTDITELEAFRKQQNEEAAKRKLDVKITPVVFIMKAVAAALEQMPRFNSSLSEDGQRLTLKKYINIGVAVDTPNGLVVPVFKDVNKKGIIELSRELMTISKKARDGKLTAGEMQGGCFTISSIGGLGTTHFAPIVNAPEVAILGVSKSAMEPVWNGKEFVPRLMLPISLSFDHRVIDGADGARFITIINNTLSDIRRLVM
Put plainly: cryo-EM structure, […] A. It is filed as binding. The conditions noted are these: covalent: moiety attached by amide bond to K245 of the lipoyl domain of the same protein (dihydrolipoyllysine), not the free amide; bound in E2p active site channel; no CoA; reduced state modelled, ox.

In data set [2] the target is B2. The data set is described as follows: cryo-EM structure; whole native PDHc (approx. 4.5 MDa) isolated from E. coli K12; low-resolution reconstruction without symmetry; 2D classes of the outer shell after subtraction of the E2p core. The conditions noted are these: both partners purified.
For data set [3], the target named is T2, pyruvate dehydrogenase (E1p) of the E. coli pyruvate dehydrogenase complex (E. coli K12 (endogenous), UniProt P0AFG8 1-887).
T2 construct: pyruvate dehydrogenase E1 component (E1p), E. coli K12, endogenous subunit of the native PDHc; source: endogenous, E. coli K12
T2 sequence (P0AFG8 whole entry, one chain of several): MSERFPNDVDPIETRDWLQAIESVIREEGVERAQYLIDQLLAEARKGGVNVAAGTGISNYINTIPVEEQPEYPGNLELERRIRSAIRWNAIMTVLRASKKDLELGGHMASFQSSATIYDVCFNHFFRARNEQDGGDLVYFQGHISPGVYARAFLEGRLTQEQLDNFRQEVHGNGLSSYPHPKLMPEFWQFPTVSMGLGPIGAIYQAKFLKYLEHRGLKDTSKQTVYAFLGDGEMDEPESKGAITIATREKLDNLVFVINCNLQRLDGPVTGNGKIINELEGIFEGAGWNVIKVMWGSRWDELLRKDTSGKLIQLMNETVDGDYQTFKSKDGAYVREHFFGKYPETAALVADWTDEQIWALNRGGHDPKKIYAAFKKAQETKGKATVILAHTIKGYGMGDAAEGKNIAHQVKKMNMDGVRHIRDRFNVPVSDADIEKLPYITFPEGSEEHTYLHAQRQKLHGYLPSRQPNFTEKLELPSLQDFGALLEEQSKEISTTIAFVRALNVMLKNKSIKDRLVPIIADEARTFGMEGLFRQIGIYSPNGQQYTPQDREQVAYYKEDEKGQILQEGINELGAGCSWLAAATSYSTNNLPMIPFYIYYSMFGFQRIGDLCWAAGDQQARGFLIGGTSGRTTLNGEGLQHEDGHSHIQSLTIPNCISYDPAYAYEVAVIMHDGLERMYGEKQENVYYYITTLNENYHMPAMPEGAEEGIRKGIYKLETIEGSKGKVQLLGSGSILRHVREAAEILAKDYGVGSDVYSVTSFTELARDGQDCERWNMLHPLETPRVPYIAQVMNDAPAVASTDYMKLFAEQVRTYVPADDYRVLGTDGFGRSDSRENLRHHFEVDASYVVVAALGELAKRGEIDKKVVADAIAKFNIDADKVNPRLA
Described as above. The conditions noted are these: both partners purified.

Data set [4] deals with the molecule itself. The data set is described as follows: cryo-EM structure; native E2p core of PDHc isolated from E. coli K12, resting state without substrates; 20 mM Hepes pH 7.5, 150 mM NaCl; O symmetry imposed, 3.16 Å.

Turning to `NC(=O)CCCC[C@@H](S)CCS` [dihydrolipoamide], the “cryo-EM structure, 3.16 A” value in data set [1] is “we modeled the prosthetic group as dihydrolipoamide, i.e., the product of the E2p-catalyzed reaction”.

B1: dihydrolipoyl dehydrogenase (E3) of the E. coli pyruvate dehydrogenase complex (enzyme, E. coli K12 (endogenous), UniProt P0A9P0 1-474, looked up)
chain: MSTEIKTQVVVLGAGPAGYSAAFRCADLGLETVIVERYNTLGGVCLNVGCIPSKALLHVAKVIEEAKALAEHGIVFGEPKTDIDKIRTWKEKVINQLTGGLAGMAKGRKVKVVNGLGKFTGANTLEVEGENGKTVINFDNAIIAAGSRPIQLPFIPHEDPRIWDSTDALELKEVPERLLVMGGGIIGLEMGTVYHALGSQIDVVEMFDQVIPAADKDIVKVFTKRISKKFNLMLETKVTAVEAKEDGIYVTMEGKKAPAEPQRYDAVLVAIGRVPNGKNLDAGKAGVEVDDRGFIRVDKQLRTNVPHIFAIGDIVGQPMLAHKGVHEGHVAAEVIAGKKHYFDPKVIPSIAYTEPEVAWVGLTEKEAKEKGISYETATFPWAASGRAIASDCADGMTKLIFDKESHRVIGGAIVGTNGGELLGEIGLAIEMGCDAEDIALTIHAHPTLHESVGLAAEVFEGSITDLPNPKAKKK
notes: dihydrolipoyl dehydrogenase (E3), E. coli K12, endogenous subunit of the native PDHc; source: endogenous, E. coli K12
For the molecule B1, in data set [2], the binding result is “binds”.
B2: in data set [3], the binding result is “binds”. Also, in data set [4], the “stoichiometry N” value came to 24.

Usually stoichiometry N stands for a count of units in the complex or per binding partner.
